From the RNAGym collection of RNA variant scans (doi:10.7554/elife.80360)

B1: HDV Ribozyme (parent)
chain: GGCCGGCAUGGUCCCAGCCUCCUCGCUGGCGCCGGCUGGGCAACAUUCCGAGGGGACCGUCCCCUCGGUAAUGGCGAAUGGGACCCA

Variants of: B1
Test: self-cleavage, relative activity (ratio to wild type); higher = more cleavage; co-transcriptional
GGCCGGCAUGGUCCCAGCCUCCUAGCUGGCGCCGGCUGGGCCACAUUCCGAGGGGACCGUCCCCUCGGUAAUGGCGAAUGGGACCCA showed a self-cleavage of 0.0639.
Variant GGCCCGCAUGGUCCCAGCCUCCUCGCUGGCGCCGGCUGGGCAACAUUCCGAGGGGACCGUCCCCUCGGUAAUGGCGAAUGGGACCGA has a self-cleavage of 0.113.
For GGCCGGCAUGGUCCCAGCCUCCUCGCUGGCGCCGGCUAGGCAACAUUCCGGGGGGACCGUCCCCUCGGUAAUGGCGAAUGGGACCCA, the self-cleavage was 0.141.
In the case of CGCCGGCAUGGUCCCAGCCUCCUCGCUGGCGCCGGCUGGGCAACAUUCCGAGGGGACCGUCCCCUCGGUAAUGGCGAAUGCGACCCA, the self-cleavage is reported as 0.119.
GGCCGGCAUGGUCCCAGCCUCCUCGCUGGCGCCGGCUGGGCAACAUUCCGAGGGGACCGUCCCCUCUGUAACGGCGAAUGGGACCCA gave a self-cleavage of 0.53.
In the case of GGCCGGCAUGGUCCCAGCCUCCUCGCUGGCGCCGGCUGGGCAACAUUCCGAGGGGACCGUCCCCACGGUAAUGGCGAAUGUGACCCA, the self-cleavage is reported as 0.353.
GGUCGCCAUGGUCCCAGCCUCCUCGCUGGCGCCGGCUGGGCAACAUUCCGAGGGGACCGUCCCCUCGGUAAUGGCGAAUGGGACCCA showed a self-cleavage of 0.
For GGCAGGCAUGGUCCCAGCCUCCUCGCUGGCGCCGGCUGGGCAACAUUCCGAGGGGACCGUCUCCUCGGUAAUGGCGAAUGGGACCCA, the self-cleavage was 0.248.
GGCCGGCAUGGUCCCAGCCUCCUCGCUGGCGCCGGUUGGGCAACAUUCCGAGGGGACCGUCCCCUCGGUAAGGGCGAAUGGGACCCA showed a self-cleavage of 0.431.
Work on GGCCGGCAUGGUCCCAGCCUCCUCGCUGGCGCCGGCUGGGCAACAUUCCGAGGGCACCGUCCCCUCGGUAAUGGCGAAGGGGACCCA yielded a self-cleavage of 0.802.
For GGCCGGCAUGGUCCCAGCCUCCUCGCUGGCGCCGGCUGGGCAACAUUCCGAGGGGACCGUCCCCUCGGUAAUGGCGAACGGGGCCCA, the self-cleavage was 0.253.
GGCCGGCAUGGUCCCAGCCUCCUCGCUGGCGCCGGCUCGGCAACAUUCCGAGGGGACCGUCCACUCGGUAAUGGCGAAUGGGACCCA showed a self-cleavage of 0.332.
Variant GGCCGGCAUGGUCCCAGCCUCCUCGCUGGCGCCGGCUGGGCAACAUUCCGAGGGGACCGUCCCCUCGGUAACGGCGAAUCGGACCCA has a self-cleavage of 0.19.
With GGCCGGCAUGGUCCCAGCCUCCUCGCUGGCGCCGGCGGGGCAACACUCCGAGGGGACCGUCCCCUCGGUAAUGGCGAAUGGGACCCA the self-cleavage was 0.128.
For GGCCGGCAUGGUCCCAGCCUCCUCGCUGGCGCCGGCUGGGCAUCAUUCCGAGGGGACCGUCACCUCGGUAAUGGCGAAUGGGACCCA, the self-cleavage was 0.499.
Variant GGCCGGCAUGGUCCCAGCCUCCUCGCUGACGCCGGCUGGGCAACAUUCCGAGGGGACCGUCCCCUCGGUAAUGGCGAAUGCGACCCA has a self-cleavage of 0.0314.
GGCCGGCAUGGUCCCAGCCUCCUCGCUGGCGCCGGCUGGGCAACAUUCCGAGGGGACCGUCCCCUCAGUAAUCGCGAAUGGGACCCA gave a self-cleavage of 0.13.
In the case of GGCCGGCAUGGUCCCAGCCUCCUCGCUGGCGCCGGCUGGGCAACAUUCCGAGGGGACCGUCCCCUCGGUAGUCGCGAAUGGGACCCA, the self-cleavage is reported as 0.6.
GGCCGGCAUGGUCCCAGCCUCCUCGCUGGCGCCGGCUGGGCAACAUUCCGAGGGGACCGUCCCCUCGGUAAUGGCGAAUGGCACCAA showed a self-cleavage of 0.527.
Variant GGCCGUCAUGGUCCCAGCCGCCUCGCUGGCGCCGGCUGGGCAACAUUCCGAGGGGACCGUCCCCUCGGUAAUGGCGAAUGGGACCCA has a self-cleavage of 0.
With GGCCGGCAUGGUCCCAGCCUCCUCGCUGGCGCCGGCUGGGCAACAUUCCGAGGGGACGGUCCCCUCGGUCAUGGCGAAUGGGACCCA the self-cleavage was 0.712.
Work on GGCCGGCAUGGUCCCAUCCUCCUCGCUCGCGCCGGCUGGGCAACAUUCCGAGGGGACCGUCCCCUCGGUAAUGGCGAAUGGGACCCA yielded a self-cleavage of 0.0652.
For GGCCGGCAUGGUCCCAGCCUCCUCGCUCGCGCCGGCUGGGCAACAUUCCGUGGGGACCGUCCCCUCGGUAAUGGCGAAUGGGACCCA, the self-cleavage was 0.156.
Work on GGCCGGCAUGGUCCCAGCCUCCUCGCUGGCGCCGGCUGGGCAACAUUCUGAGGGGACCGUCCCCUCGGUAAUGGAGAAUGGGACCCA yielded a self-cleavage of 0.196.
In the case of GGCCGGCAUGGUCCCAGCCUCCUCGCUGGCGCCGGCUGUGCAACAUUCCGAGGGGACCGUCACCUCGGUAAUGGCGAAUGGGACCCA, the self-cleavage is reported as 0.623.
GGACGGCAUGGUCCCAGCCUCCUCGCUGGCGCCGGCUGGGCAACAUUCCGAGGGGACCGUCCCCUCGGUCAUGGCGAAUGGGACCCA showed a self-cleavage of 0.501.
In the case of GGCCGGCAUGGUCCCAGCCUCCUCGCUGGCGCCGGCUGGGCAACAUUCCGAGGGGACCGUCCCCUCGGUAAUGACGGAUGGGACCCA, the self-cleavage is reported as 0.332.
With GGCCGGCAUGGUCCCAGCCUCUUCGCUGUCGCCGGCUGGGCAACAUUCCGAGGGGACCGUCCCCUCGGUAAUGGCGAAUGGGACCCA the self-cleavage was 0.101.
GGCCGGCAUGGUCCCUGCCUCCUCGCUGGCGCCGGCUGGGCAACAUUCCGCGGGGACCGUCCCCUCGGUAAUGGCGAAUGGGACCCA showed a self-cleavage of 0.923.
Variant GGCCGGCAUGGUCCCAGCCUCCUCGCUGGCGCCGGCUGGGCAACAUUCCGACGGCACCGUCCCCUCGGUAAUGGCGAAUGGGACCCA has a self-cleavage of 1.03.
For GGCCGGCAUGGUCCCAGCCUCCUCGCUGGCGCUGGCUGGGCAACAUUACGAGGGGACCGUCCCCUCGGUAAUGGCGAAUGGGACCCA, the self-cleavage was 0.631.
With GGCCGGCAUGGUCCCAGCCUACUCGCUGGCGCCGGCUGGGCAACAUUCCGAGGGGACCGUCCCCUCGGUAAUGGCGAAUGUGACCCA the self-cleavage was 0.0665.
Variant GGCUGGCAUGGUCCCAGCCUCCUCGCUGGCGUCGGCUGGGCAACAUUCCGAGGGGACCGUCCCCUCGGUAAUGGCGAAUGGGACCCA has a self-cleavage of 0.525.
Variant GGCCAGCAUGGUCCCAGCCUCCUCGCUGGCGCCGGCUGGGCAACAUUCCGAGGGGACCGUCCCCUCGGUAAUGGCGAAUGUGACCCA has a self-cleavage of 0.
For GGCCGGCCUUGUCCCAGCCUCCUCGCUGGCGCCGGCUGGGCAACAUUCCGAGGGGACCGUCCCCUCGGUAAUGGCGAAUGGGACCCA, the self-cleavage was 0.415.
With GGCCGGCAUGGUCCCAGCCUCUUCGCUGGCGCCGGCUGGGCAACAUUCCGAGGGGACCGUCCCCUCGGUAAUGGCCAAUGGGACCCA the self-cleavage was 0.763.
In the case of GGCCGGCAUGGUCCCCGCCUCCUCGCUGGCGCCGGCUGGGCAACAUUCCGAGGGAACCGUCCCCUCGGUAAUGGCGAAUGGGACCCA, the self-cleavage is reported as 0.554.
GGCCGGCAUGGUCCCAGCCUCCCCGCUGGCGCCGUCUGGGCAACAUUCCGAGGGGACCGUCCCCUCGGUAAUGGCGAAUGGGACCCA showed a self-cleavage of 0.354.
Work on AGCCGGCAUGGUCCCAGCCUCCUCGCUGGCGCCGGCUGGGCAACAUUCCGAGGGGACCGUCCCCUCGGUAAGGGCGAAUGGGACCCA yielded a self-cleavage of 0.0665.
For GGCCGGCAUGGUCCCAGCCUCCUCGCUGGCGCCGGCUGGGCAACAUGCCGAGGGGACCGUCCCCGCGGUAAUGGCGAAUGGGACCCA, the self-cleavage was 0.95.
GGCCGGCAUGGUCCCAGCCUCCUCGCUGGCGCCGGCUGGGGAACAUUCCGAGGGGCCCGUCCCCUCGGUAAUGGCGAAUGGGACCCA showed a self-cleavage of 0.942.
With GGCCGGCAUGGUCCCAGCCUCCUCGCUGGCGCCGGCUGGGCAUCAUUCCGAGGGGACCGUCCCCUCGGUAAUGGCGAAUGGGACUCA the self-cleavage was 0.658.
For GGCCGGCAUGGUCCCAGCCUCCCCGCUGGCGCCGGCUGGGCAACAUUCCGAGGCGACCGUCCCCUCGGUAAUGGCGAAUGGGACCCA, the self-cleavage was 0.673.
Work on GGCCGACAUGGUCCCAGCCUCCUCGCUGGCGCCGGCUGGGCAACAUUCCGAGGGGAGCGUCCCCUCGGUAAUGGCGAAUGGGACCCA yielded a self-cleavage of 0.643.
In the case of GGGCUGCAUGGUCCCAGCCUCCUCGCUGGCGCCGGCUGGGCAACAUUCCGAGGGGACCGUCCCCUCGGUAAUGGCGAAUGGGACCCA, the self-cleavage is reported as 0.119.
Variant GGCCGGCAUGGUCCCAGUCUCCUCGCUGGCGCCGGCUGGGCAACAUUCCGAGGGGACCAUCCCCUCGGUAAUGGCGAAUGGGACCCA has a self-cleavage of 0.896.
With GGCCGGCAUGGUCCCAGCCUCCUCGCUGGCGCCGGCUGGGCCACAUUCCGAGGGGACCGUCCCCUCGGGAAUGGCGAAUGGGACCCA the self-cleavage was 0.246.
Work on GGCCGGCAUGGUCCCAGCCUCCUGGCUGGCGCCGGCUGGGCAACAUUCCGAGCGGACCGUCCCCUCGGUAAUGGCGAAUGGGACCCA yielded a self-cleavage of 0.0817.
In the case of GGCCGGCAUAGUCCCAGCCUCCUCGCUGGCGCCGGCUUGGCAACAUUCCGAGGGGACCGUCCCCUCGGUAAUGGCGAAUGGGACCCA, the self-cleavage is reported as 0.0923.
With GACCGGCAUGGUCCCAGCCUGCUCGCUGGCGCCGGCUGGGCAACAUUCCGAGGGGACCGUCCCCUCGGUAAUGGCGAAUGGGACCCA the self-cleavage was 0.0528.
Work on GGCCGGCAUGGUCCCAGCCUCCUCGCUGGCGCCGGCUGGGCAACAUUCCGAGGGGACCGUCCCGUCGGUAAUGGCGAAUGGGAACCA yielded a self-cleavage of 0.718.
GGCCGGGAUGGUCCCAGCCUCCUCGCUGGCGCCGGCUGGGCAACAUUCCGAGGGGAACGUCCCCUCGGUAAUGGCGAAUGGGACCCA gave a self-cleavage of 0.434.
With GGCCGGCAUGGUCCAAGCCUCCUCGCUGCCGCCGGCUGGGCAACAUUCCGAGGGGACCGUCCCCUCGGUAAUGGCGAAUGGGACCCA the self-cleavage was 0.0692.
Work on GGCCGGCAUGGUCCCAGCCUCCUCGCUGGCGCCGGCCGGGCAACAUUCCGAGGGGACCGUCCCCUUGGUAAUGGCGAAUGGGACCCA yielded a self-cleavage of 1.01.
For GGCCGGCAUGGUCCCAGCCUCCUCCCUGGCGACGGCUGGGCAACAUUCCGAGGGGACCGUCCCCUCGGUAAUGGCGAAUGGGACCCA, the self-cleavage was 0.148.
GGCCGGCAGGGUCCCAGCCGCCUCGCUGGCGCCGGCUGGGCAACAUUCCGAGGGGACCGUCCCCUCGGUAAUGGCGAAUGGGACCCA gave a self-cleavage of 0.
With GGCCGGCAUGGUCCCAGCCUCCUCGCUGGCGCCGGCCAGGCAACAUUCCGAGGGGACCGUCCCCUCGGUAAUGGCGAAUGGGACCCA the self-cleavage was 0.0354.
Work on GGCCGGCAUGGUCCCAGCCUCCUCGCUGGAGGCGGCUGGGCAACAUUCCGAGGGGACCGUCCCCUCGGUAAUGGCGAAUGGGACCCA yielded a self-cleavage of 0.101.
Variant GGCCGGCAUGGUCCCGGCCUCCUCGCUGGCGCCGGCUGGGCAACAUUCCGAGGGGACCGUCCCCUCGGUAAUGGCGAAUGGCACCCA has a self-cleavage of 0.172.
In the case of GGCCGGCAUGGUCCCAGCCUCCUCGCUGGCGCCGGCUGGGCAACAUUCCGAGGGGACCGUCCCCUCGGUGAUGGCGAAUGGGCCCCA, the self-cleavage is reported as 0.344.
Work on GGCCGGCAUGGUCCCAGCCUCCUCGCUGGCGCCGGCUGGGCAACAUUCCGAGGGGACCGUCCGCUCGGUAAUGUCGAAUGGGACCCA yielded a self-cleavage of 0.529.
With GGCAGGCAUGGUCCCAGCCUCCUCGCUCGCGCCGGCUGGGCAACAUUCCGAGGGGACCGUCCCCUCGGUAAUGGCGAAUGGGACCCA the self-cleavage was 0.0396.
GGCCGGCAUGGUCCCAGCCUCCUCGCUGGCGCCGGCUGGGCAACAUUCCGAGAGGACCGUCCCCUCGGUAAUGGCGAAUCGGACCCA showed a self-cleavage of 0.351.
For GGCAGGCAUGGUCCCAGCCUCCUCGCUGGCGCCGUCUGGGCAACAUUCCGAGGGGACCGUCCCCUCGGUAAUGGCGAAUGGGACCCA, the self-cleavage was 0.0369.
